Source: the RNAGym collection of RNA variant scans (doi:10.1073/pnas.2313332121)
Fewer inactive variants are shown than the library holds.

B1: TPR 5TU (parent)
chain: GGAUCUUCUCGAUCUAACAAAAAAGACAAAUCUGCCACAAAGCUUGAGAGCAUCUUCGGAUGCAGAGGCGGCAGCCUUCGGUGGCGCGAUAGCGCCAACGUUCUCAACUAUGACACGCAAAACGCGUGCUCCGUUGAAUGGAGUUUAUCAUG

Variants of: B1
Assay: polymerase ribozyme fitness, log enrichment relative to wild type (log ratio); higher = more active; in vitro selection for triplet polymerase activity
In short: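 Only genotypes with ≥10 input reads and ≥1 read per output were kept after Illumina sequencing of input and output libraries. These libraries were PCR-built, transcribed mutants of each subunit of a heterodimeric triplet polymerase ribozyme, each put through one triplicate in vitro selection round with frozen incubation at −7 °C, gel excision of extended constructs, streptavidin-bead capture and RT-PCR. Fitness is a logarithmic ratio of genotype enrichment to wild-type enrichment, from inverse-variance-weighted replicate averages, with the logarithm in base 2.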

Row | Variant | polymerase ribozyme fitness (log ratio)
1 | G68A A106C | -4.13
2 | G62C C72U C93U G133A G141U | ≤ -4.2
3 | G65U U82A C93U C95G | ≤ -4.2
4 | G62U U145G | -0.51
5 | G62U C63U G68A C95A C103A | ≤ -4.2
6 | U61A G65A G67C G84U C96G G141U | ≤ -4.2
7 | G65A C96U G112C A115G U144A | ≤ -4.2
8 | A64G G84U U151A | ≤ -4.2
9 | A66G C96U | -3.66
10 | A60U G141U | 0.392
11 | G65A G84U | -2.89
12 | C63G G81U G92A G117C C118U G143U | ≤ -4.2
13 | C63G C72U C93U | -0.337
14 | A66G G83C U111G | ≤ -4.2
15 | G62C G84A C125G G128A | ≤ -4.2
16 | G65U U78A | -1.52
17 | A64G C99A | -3.82
18 | G65C C87G U102A | ≤ -4.2
19 | C63U C79G A91G A107G | ≤ -4.2
20 | G62U C72U C93U A122G | -3.31
21 | U61A C76A C87U | -3.68
22 | G67U G70C G86A C132G | ≤ -4.2
23 | G67A G74C G94A A119G | ≤ -4.2
24 | G62C C72U C85U C108U | ≤ -4.2

Row | Variant | polymerase ribozyme fitness (log ratio)
25 | A64C G83C G141A | ≤ -4.2
26 | G67A C99U A107U G143C | ≤ -4.2
27 | A66C C103G C108A G117A | ≤ -4.2
28 | U61G A91C C93U C114A G126A U135G | ≤ -4.2
29 | U61G C85A G143C | -3.43
30 | G67C G92U C99U A107U U148A | ≤ -4.2
31 | U61G C116A | -0.386
32 | U61A G92C | -3.57
33 | G67U C87G U130A | ≤ -4.2
34 | G67U C85A C93U | ≤ -4.2
35 | U61G G71U C87U G143A | ≤ -4.2
36 | A66U G94A G100U U148G | ≤ -4.2
37 | U61C G67A G68C C79U A98G | ≤ -4.2
38 | G62U U109C C116U C131U A147U | -1.94
39 | U61G G92C C95U C105U A106C U109C A138G | ≤ -4.2
40 | U61A C63U C85G A119U C131A | ≤ -4.2
41 | A66U G88A U109A A122C | ≤ -4.2
42 | A66G C87U | -3.68
43 | G65C G81U G94C C105G A115G C129U A138C | ≤ -4.2
44 | G67A A73C C87G | ≤ -4.2
45 | A66G C85U | -3.45
46 | G65A C76A A122U | -4.06
47 | G62C C76U U139G | -3.09
48 | U61A A98U U134G G140U U145A | ≤ -4.2

Row | Variant | polymerase ribozyme fitness (log ratio)
49 | C63U A64G G83C | ≤ -4.2
50 | U61A A73G C93U C125A | -3.14
51 | C63U C85U C95U C149U | -1.91
52 | U61A C79A G83C | ≤ -4.2
53 | A66G C85U G86U | ≤ -4.2
54 | U61A G117A | -0.98
55 | C63U A150U | 0.854
56 | G65C G86C | ≤ -4.2
57 | G65A G136C A147C | -4.13
58 | U61A A107C G128U U139A | ≤ -4.2
59 | U61G C95G U135C | -4.17
60 | U61A C76U U102G U109C | ≤ -4.2
61 | A64G | -2.27
62 | A64C | ≤ -4.2
63 | A64U | -3.99
64 | G68A A91U A107C A110G G141A | ≤ -4.2
65 | C63U A89G C93A | ≤ -4.2
66 | U61A G74A C76U C87A C108U A142U | ≤ -4.2
67 | U61A C85A C96A A121G | ≤ -4.2
68 | U61G C85A G133C | -3.52
69 | A66U G86U C103A A142G | ≤ -4.2
70 | G62A C93A | -1.93
71 | G62U C116U | 0.138
72 | A66C C76U A91U A97U C114U A142G | ≤ -4.2

Row | Variant | polymerase ribozyme fitness (log ratio)
73 | G67U C79G | ≤ -4.2
74 | G62A C103U | -1.66
75 | G62C G143U | -3.58
76 | G65A G74C G140U A147G | ≤ -4.2
77 | A66G G92C C105U | -4.03
78 | A60U U61A G86A C93A A110C G133A | ≤ -4.2
79 | C63U C75A G86A A89U A106U U134G | ≤ -4.2
80 | G65C C85U | -4.04
81 | A66C A91G A98U C131A U139A | ≤ -4.2
82 | G65A A89U G94U | -2.57
83 | G67A C87U | -4.13
84 | G62C C72A A91G A98G C123U | ≤ -4.2
85 | C63U C69A G80A C85U G94C C99A | -3.32
86 | A60U G86A | -2.78
87 | G67A C87A A98U | ≤ -4.2
88 | C63U C99U C116A | 0.561
89 | C63U C75A G84A C118G A120G | ≤ -4.2
90 | U61A U78G C95U A107C U148G A150U | ≤ -4.2
91 | G62U C95A | -1.1
92 | A66C C85A | ≤ -4.2
93 | G62C G81A A91U A113U C125U | ≤ -4.2
94 | G67C A91C | ≤ -4.2
95 | U61A C96U | -1.32
96 | U61A C96A | -1.36

Row | Variant | polymerase ribozyme fitness (log ratio)
97 | G67A G86A | -3.58
98 | U61A C99G | -3.23
99 | C63U A73G | -0.225
100 | U61A C108U | -3.86
101 | G62C C79U G141U | ≤ -4.2
102 | G62A C75U | -0.822
103 | G62U G136A | 0.626
104 | U61G G88A | -4.18
105 | G62C A137C U148G | ≤ -4.2
106 | C63A C79U G94C A119G | ≤ -4.2
107 | G62A U82A | -0.432
108 | G62C G94A G133C G141U | -3.95
109 | A66G C96U A138U U151A | ≤ -4.2
110 | A66C C76U | -3.47
111 | G62A G84A U135A | -1.93
112 | U61G G62A C87U | -1.28
113 | U61A C69U A98U | -2.9
114 | U61A A89C A107U G117U U144G U151A | ≤ -4.2
115 | G67U G117A U151A | ≤ -4.2
116 | G67U C118U | -2.87
117 | U61G G84A U139C U145C | ≤ -4.2
118 | U61G C93U G94A U144G | ≤ -4.2
119 | G65A C114A | -3.39
120 | U61A C95A | -1.41

Row | Variant | polymerase ribozyme fitness (log ratio)
121 | U61C G70A | -4.13
122 | G67A C76A | -4.16
123 | G62A C116U | -0.0465
124 | C63U G80A A97G A110G | -4.19
125 | C63U G68A G83C A115C U144C C149A | ≤ -4.2
126 | G62C G141C | -0.741
127 | U61A C103G A115U | ≤ -4.2
128 | G62A G67A C72U C75G C93G C95U A120G | ≤ -4.2
129 | G65A A113G | -3.91
130 | U61A A107C C114U G140U | ≤ -4.2
131 | A66C G92A | ≤ -4.2
132 | U61G C76A U78C G88C | ≤ -4.2
133 | G62A C76A C79A C96A | ≤ -4.2
134 | A64U C87A C95U U139A | ≤ -4.2
135 | G65A C85U A137U U139A G140A G152A | -3.3
136 | A66G C69U | ≤ -4.2
137 | G62A G81U C95A G126U | 0.493
138 | A64C G71A U144G U148G | ≤ -4.2
139 | G65C G74C G88A C93G U146A | ≤ -4.2
140 | C63U C99G U151A | ≤ -4.2
141 | U61A A73G G94U | -3
142 | C63U C85U | -0.275
143 | C63A G83A U145C A150U | -0.965
144 | C63U A122U | 0.751

Row | Variant | polymerase ribozyme fitness (log ratio)
145 | A64G A91C A115G U145C | -3.96
146 | G62U G94A | -1.25
147 | C63G A98U C99U | 0.639
148 | U61A C76A | -3.6
149 | C63U G70C C87G A89G C96A G126C | ≤ -4.2
150 | U61C C87A | ≤ -4.2
151 | G62A A64C C85U C95G C105G A121U U134G U139G U151C | ≤ -4.2
152 | U61G C93G A98U A138C | ≤ -4.2
153 | A66G U78G U90C U135G | ≤ -4.2
154 | G62A G86A A122C | -1.02
155 | A66G G84A G141C | ≤ -4.2
156 | G62C G92C | -3.09
157 | G67C U101A G141U A150U G152U | ≤ -4.2
158 | U61G G94A C108G | ≤ -4.2
159 | G67A A89G G92C C93A C116U A122C U127C | ≤ -4.2
160 | A66G C85A A91G U148A | ≤ -4.2
161 | G67U C75A G92A G124U | ≤ -4.2
162 | A66U C93U | ≤ -4.2
163 | A60U G86A A150C | ≤ -4.2
164 | C63G U90G G94A | -3.97
165 | G62U A106C U146G C149U | -3.91
166 | U61G G83A | -1.01
167 | G67U G81A C93G C105U | ≤ -4.2
